The target of this assay is T1, GLD-3L with C-terminal His tag, MBP cleaved off (C. elegans, UniProt Q95ZK7-1 1-969).
T1 construct: GLD-3, C. elegans, isoform GLD-3L; also called GLD-3L^6His; source: insect cells, purified on amylose beads, MBP cleaved off by PreScission protease; not shown: MBP, N-terminal, cleaved; His6, C-terminal, kept
T1 sequence (looked up): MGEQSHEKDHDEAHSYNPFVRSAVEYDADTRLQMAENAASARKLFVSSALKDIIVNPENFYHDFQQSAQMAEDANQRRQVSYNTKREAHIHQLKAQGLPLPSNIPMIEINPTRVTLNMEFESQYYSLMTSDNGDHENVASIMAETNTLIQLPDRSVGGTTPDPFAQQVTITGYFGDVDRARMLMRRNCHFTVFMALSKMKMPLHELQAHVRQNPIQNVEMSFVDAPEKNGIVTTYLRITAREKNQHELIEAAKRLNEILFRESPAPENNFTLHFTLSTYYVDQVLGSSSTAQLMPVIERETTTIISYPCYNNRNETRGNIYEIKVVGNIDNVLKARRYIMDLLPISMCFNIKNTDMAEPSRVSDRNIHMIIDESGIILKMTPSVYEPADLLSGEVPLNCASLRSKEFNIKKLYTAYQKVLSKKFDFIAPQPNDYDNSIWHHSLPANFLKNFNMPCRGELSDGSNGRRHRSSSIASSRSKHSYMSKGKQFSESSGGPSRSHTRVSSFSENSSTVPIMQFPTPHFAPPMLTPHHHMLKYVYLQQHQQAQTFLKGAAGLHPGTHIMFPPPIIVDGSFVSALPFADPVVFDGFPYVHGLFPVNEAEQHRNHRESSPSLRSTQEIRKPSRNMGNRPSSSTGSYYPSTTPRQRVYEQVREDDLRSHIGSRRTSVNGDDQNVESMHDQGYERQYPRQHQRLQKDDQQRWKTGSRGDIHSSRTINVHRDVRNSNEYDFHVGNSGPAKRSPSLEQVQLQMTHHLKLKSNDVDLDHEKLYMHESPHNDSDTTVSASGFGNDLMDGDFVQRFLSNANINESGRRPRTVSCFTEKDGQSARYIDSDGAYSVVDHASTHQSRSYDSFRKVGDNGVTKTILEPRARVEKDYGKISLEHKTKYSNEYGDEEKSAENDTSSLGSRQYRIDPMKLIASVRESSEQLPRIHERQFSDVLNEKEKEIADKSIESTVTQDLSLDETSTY
In words: pull-down; competition assay; MBP-FBF-1 immobilized on amylose beads, loaded with GLD-3L, then challenged with increasing amounts of free GLS-1; washed; GLD-3L on beads quantified from Western blot bands. To be noted: both partners purified. On the technique in general: In western blotting, separated proteins are transferred to a membrane and probed.

B1: MBP-FBF-1 with C-terminal His tag, from insect cells (natural protein, C. elegans, UniProt Q9N5M6 1-614, looked up)
chain: MDQSKMRYTNQFRKTPQKPTSTEVGNHHTPAHSPMAQHETSMWNFNSLNPYFSMLNMNDGMNYARHQQNHIVTSRPPTPLTDLMSLRSFQSFPNVFMPVSRSRTSSFIQSDTDSSRLEPDDFSQNVRYCSTEIDRNNSSSKNDHLKYSRPALSRNSRSFTRSNNVLPTWSLDSNGEMRSRLSLSEVLDSGDLMKFAVDKTGCQFLEKAVKGSLTSYQKFQLFEQVIGRKDDFLKLSTNIFGNYFVQEIIGMSLTTYDDDNIKRQEKLKNFISSQMTDMCLDKFACRVIQSSLQNMDLSLACKLVQALPRDARLIAICVDQNANHVIQKVVAVIPLKNWEFIVDFVATPEHLRQICFDKYGCRVVQTIIEKLTADSINVDLTSAAQHLRERALQRLMTSVTNRCQELATNEYANYIIQHIVSNDDLAVYRECIIEKCLMRNLLSLSQEKFASHVVEKAFLHAPMELLAEMMDEIFDGYMPHPGTGKDALDIMMFHQFGNYVVQCMLTICCDAVSGRRQTKEGSYDHANSFQVWLKKLHSRVTKERHRLSRFSSGKKMIETLAHLRSTHPIYGLQSSGHESFKTDCFSTASEHDGLELEKNGIEEGNLRLMRTFSP
notes: FBF-1, PUF protein, C. elegans; also called MBP-FBF-1^6His; source: insect cells, purified on amylose beads; not shown: His6, C-terminal, kept
In the case of B1, the binding result is given as “binds”.
